From paper PMC8307404, “Crystal Structure-Guided Design of Bisubstrate Inhibitors and Photoluminescent Probes for Protein Kinases of the PIM Family” (Molecules, 2021)
Square brackets hold non-standard residues; d marks the D form. Peptide text beside a SMILES is read from it. * marks the point of attachment. X3 = O=C(CCCCCNCc1nc2c(sc3cc(Br)cnc32)c(=O)[nH]1)*

Legend:
Experiment in all cases: Kinase profiling (radiometric filter-binding)
Assay type in all cases: biochemical
ULK2 = target: T1, ULK2 (Homo sapiens, UniProt Q8IYT8); details: ULK2, 1 µM inhibitor; read-out: Residual activity, %
T1 sequence (Q8IYT8 1-1036): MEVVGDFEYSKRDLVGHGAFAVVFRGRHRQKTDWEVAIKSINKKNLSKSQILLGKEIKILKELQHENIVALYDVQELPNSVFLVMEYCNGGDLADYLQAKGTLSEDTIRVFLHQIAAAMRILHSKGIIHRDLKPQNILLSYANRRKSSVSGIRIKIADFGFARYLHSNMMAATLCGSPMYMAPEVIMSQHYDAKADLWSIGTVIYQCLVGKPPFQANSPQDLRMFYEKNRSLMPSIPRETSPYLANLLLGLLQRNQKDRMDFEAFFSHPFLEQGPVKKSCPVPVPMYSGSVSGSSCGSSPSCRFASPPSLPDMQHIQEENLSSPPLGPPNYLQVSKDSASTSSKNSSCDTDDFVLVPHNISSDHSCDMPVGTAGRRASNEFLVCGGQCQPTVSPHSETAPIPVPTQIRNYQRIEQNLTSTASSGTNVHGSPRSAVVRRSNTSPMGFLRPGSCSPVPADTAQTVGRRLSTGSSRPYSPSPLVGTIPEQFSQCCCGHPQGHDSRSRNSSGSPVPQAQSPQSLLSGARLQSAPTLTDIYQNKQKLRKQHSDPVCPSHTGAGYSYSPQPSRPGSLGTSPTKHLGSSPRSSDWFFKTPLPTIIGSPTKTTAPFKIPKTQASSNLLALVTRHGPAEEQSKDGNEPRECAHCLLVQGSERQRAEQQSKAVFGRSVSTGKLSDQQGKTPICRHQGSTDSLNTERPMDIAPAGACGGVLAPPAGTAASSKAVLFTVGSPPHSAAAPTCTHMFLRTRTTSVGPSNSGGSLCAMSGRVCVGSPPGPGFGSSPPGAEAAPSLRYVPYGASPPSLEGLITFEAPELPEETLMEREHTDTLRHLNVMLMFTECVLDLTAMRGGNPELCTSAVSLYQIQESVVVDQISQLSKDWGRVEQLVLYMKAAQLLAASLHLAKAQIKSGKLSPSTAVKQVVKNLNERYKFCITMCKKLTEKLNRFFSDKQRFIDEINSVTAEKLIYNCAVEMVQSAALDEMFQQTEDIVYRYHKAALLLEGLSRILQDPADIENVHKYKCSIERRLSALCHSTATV
Summary of the method: (§1)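 Residual kinase activity, as a percentage of the inhibitor-free control, was measured at 1 µM final compound by radiometric filter binding. Each human enzyme was run with ATP no higher than its own KM.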

EPH-B4 = target: T2, EPH-B4 (Homo sapiens, UniProt P54760); details: EPH-B4, 1 µM inhibitor; read-out: Residual activity, %
T2 sequence (P54760 16-987): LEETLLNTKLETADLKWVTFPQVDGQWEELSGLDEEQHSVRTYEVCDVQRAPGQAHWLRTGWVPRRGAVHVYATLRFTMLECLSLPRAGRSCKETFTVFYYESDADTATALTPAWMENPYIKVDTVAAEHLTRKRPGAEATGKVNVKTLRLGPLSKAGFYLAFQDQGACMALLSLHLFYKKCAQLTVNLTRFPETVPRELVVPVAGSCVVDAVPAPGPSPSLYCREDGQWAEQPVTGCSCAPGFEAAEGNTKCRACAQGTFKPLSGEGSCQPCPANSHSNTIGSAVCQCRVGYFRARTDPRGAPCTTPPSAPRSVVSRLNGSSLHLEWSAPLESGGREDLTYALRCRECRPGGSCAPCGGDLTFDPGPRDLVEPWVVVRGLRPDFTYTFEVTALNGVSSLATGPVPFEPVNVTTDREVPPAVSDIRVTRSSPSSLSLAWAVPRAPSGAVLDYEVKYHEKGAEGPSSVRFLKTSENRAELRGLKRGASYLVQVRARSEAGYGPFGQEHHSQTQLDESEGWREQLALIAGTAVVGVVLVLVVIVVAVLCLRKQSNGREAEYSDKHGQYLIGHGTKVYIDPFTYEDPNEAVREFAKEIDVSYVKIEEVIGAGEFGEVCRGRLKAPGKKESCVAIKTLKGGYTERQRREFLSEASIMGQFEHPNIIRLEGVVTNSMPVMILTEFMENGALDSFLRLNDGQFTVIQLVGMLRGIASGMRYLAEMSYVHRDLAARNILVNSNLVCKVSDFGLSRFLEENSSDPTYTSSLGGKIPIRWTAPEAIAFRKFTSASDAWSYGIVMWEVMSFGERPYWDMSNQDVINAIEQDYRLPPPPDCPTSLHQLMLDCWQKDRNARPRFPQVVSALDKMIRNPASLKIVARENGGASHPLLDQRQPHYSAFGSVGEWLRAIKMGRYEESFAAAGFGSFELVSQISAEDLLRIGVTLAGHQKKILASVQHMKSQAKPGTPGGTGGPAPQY
Summary of the method: as §1

DYRK2 = target: T3, DYRK2 (Homo sapiens, UniProt Q92630); details: DYRK2, 1 µM inhibitor; read-out: Residual activity, %
T3 sequence (Q92630 1-601): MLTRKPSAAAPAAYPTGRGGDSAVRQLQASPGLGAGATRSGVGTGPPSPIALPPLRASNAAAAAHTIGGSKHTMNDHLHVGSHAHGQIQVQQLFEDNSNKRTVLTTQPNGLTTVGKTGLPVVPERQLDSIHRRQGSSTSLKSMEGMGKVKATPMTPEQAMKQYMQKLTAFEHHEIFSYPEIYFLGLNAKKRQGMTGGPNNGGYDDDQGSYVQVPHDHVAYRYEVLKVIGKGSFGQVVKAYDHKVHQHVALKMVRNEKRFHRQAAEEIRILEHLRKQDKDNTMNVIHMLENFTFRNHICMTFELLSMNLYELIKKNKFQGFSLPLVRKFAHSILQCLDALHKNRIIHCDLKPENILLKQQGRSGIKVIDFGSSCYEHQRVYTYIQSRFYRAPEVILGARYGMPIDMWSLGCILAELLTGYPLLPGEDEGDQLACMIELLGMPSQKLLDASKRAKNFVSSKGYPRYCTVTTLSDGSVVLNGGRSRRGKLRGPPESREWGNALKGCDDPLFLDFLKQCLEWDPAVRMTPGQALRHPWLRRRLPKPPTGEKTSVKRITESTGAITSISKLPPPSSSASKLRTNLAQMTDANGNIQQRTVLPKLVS
Summary of the method: as §1

MINK1 = MINK1 (Homo sapiens, UniProt Q8N4C8); details: MINK1, 1 µM inhibitor; read-out: Residual activity, %
Chain of MINK1 (Q8N4C8 whole entry): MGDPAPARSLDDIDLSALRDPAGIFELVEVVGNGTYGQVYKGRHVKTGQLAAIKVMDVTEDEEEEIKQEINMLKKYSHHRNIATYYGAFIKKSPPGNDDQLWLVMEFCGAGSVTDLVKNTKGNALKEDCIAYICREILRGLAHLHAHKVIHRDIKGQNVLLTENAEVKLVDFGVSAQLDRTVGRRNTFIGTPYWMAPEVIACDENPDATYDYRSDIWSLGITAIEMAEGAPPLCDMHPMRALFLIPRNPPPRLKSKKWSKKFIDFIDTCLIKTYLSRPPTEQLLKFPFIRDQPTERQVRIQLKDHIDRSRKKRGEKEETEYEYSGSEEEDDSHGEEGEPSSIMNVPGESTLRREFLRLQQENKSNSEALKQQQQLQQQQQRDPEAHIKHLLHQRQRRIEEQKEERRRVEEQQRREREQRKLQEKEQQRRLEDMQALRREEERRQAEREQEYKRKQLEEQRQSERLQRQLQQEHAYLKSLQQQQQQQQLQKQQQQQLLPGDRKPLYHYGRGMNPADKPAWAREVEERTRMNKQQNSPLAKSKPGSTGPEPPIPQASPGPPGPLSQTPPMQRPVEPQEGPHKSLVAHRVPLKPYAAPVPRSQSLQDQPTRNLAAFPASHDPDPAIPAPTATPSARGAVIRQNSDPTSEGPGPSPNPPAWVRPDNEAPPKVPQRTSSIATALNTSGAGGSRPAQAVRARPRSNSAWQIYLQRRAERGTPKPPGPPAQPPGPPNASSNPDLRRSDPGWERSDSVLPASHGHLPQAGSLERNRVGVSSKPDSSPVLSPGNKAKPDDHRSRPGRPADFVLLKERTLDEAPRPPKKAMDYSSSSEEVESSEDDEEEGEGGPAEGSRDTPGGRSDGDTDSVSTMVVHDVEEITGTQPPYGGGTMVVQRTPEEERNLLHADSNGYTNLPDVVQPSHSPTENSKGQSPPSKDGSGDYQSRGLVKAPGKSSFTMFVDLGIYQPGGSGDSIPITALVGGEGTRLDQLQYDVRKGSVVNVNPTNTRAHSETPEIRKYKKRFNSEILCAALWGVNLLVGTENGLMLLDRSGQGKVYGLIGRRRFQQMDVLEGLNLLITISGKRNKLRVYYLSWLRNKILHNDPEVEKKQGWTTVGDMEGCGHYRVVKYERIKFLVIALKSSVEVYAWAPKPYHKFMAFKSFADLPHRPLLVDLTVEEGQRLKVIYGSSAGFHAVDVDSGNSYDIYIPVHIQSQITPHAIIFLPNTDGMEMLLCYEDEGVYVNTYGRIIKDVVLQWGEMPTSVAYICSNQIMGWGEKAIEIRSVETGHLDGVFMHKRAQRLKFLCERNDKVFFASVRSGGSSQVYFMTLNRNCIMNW
Summary of the method: as §1

For `N=C(N)NCCC[C@@H](NC(=O)CCCCCNC(=O)Cn1cnc2c(I)c(I)c(I)c(I)c21)C(=O)N[C@H](CCCNC(=N)N)C(=O)N[C@H](CCCNC(=N)N)C(=O)N[C@H](CCCNC(=N)N)C(=O)N[C@H](CCCNC(=N)N)C(=O)N[C@H](CCCNC(=N)N)C(=O)N[C@H](CCCCN)C(N)=O` [ARC-3125, TIBI-CH2-C(=O)-Ahx-(D-Arg)6-D-Lys-NH2], the remaining activity at 1 µM (ULK2) was 34 ± 3%, the remaining activity at 1 µM (EPH-B4) was 119 ± 7% and the remaining activity at 1 µM (DYRK2) was 54 ± 6%. It also gave a remaining activity at 1 µM (MINK1) of 86 ± 1%.
For `N=C(N)NCCC[C@@H](NC(=O)CCCCCNCc1nc2c(sc3cc(Br)cnc32)c(=O)[nH]1)C(=O)N[C@H](CCCNC(=N)N)C(=O)N[C@H](CCCNC(=N)N)C(=O)N[C@H](CCCNC(=N)N)C(=O)N[C@H](CCCNC(=N)N)C(=O)N[C@H](CCCNC(=N)N)C(=O)N[C@H](CCCCN)C(N)=O` [ARC-3126, BPTP-Ahx-(D-Arg)6-D-Lys-NH2] (X3-[dR][dR][dR][dR][dR][dR][dK]-NH2), the remaining activity at 1 µM (ULK2) was 104 ± 9%, the remaining activity at 1 µM (EPH-B4) was 101 ± 10% and the remaining activity at 1 µM (DYRK2) was 88 ± 6%. For the same compound, the remaining activity at 1 µM (MINK1) was 104 ± 16%.
For `N=C(N)NCCC[C@@H](NC(=O)CNC(=O)[C@@H](CCCNC(=N)N)NC(=O)[C@@H](CCCNC(=N)N)NC(=O)CCCCCCCNCc1nc2c(sc3cc(Br)cnc32)c(=O)[nH]1)C(=O)N[C@H](CCCCN)C(N)=O` [Compound 1, BPTP-Aoc-(D-Arg)2-Gly-D-Arg-D-Lys-NH2], the remaining activity at 1 µM (ULK2) was 115 ± 5%, the remaining activity at 1 µM (EPH-B4) was 104 ± 2% and the remaining activity at 1 µM (DYRK2) was 85 ± 17%. For the same compound, the remaining activity at 1 µM (MINK1) was 129 ± 2%.
Work on `N=C(N)NCCC[C@@H](NC(=O)CNC(=O)[C@@H](CCCNC(=N)N)NC(=O)[C@@H](CCCNC(=N)N)NC(=O)CCCCCCCNCc1nc2c(sc3ccc(Br)cc32)c(=O)[nH]1)C(=O)N[C@H](CCCCN)C(N)=O` [Compound 2, BBTP-Aoc-(D-Arg)2-Gly-D-Arg-D-Lys-NH2] yielded a remaining activity at 1 µM (ULK2) of 127 ± 9%, a remaining activity at 1 µM (EPH-B4) of 118 ± 11% and a remaining activity at 1 µM (DYRK2) of 64 ± 5%. It also gave a remaining activity at 1 µM (MINK1) of 106 ± 13%.
`N=C(N)NCCC[C@@H](NC(=O)CNC(=O)[C@@H](CCCNC(=N)N)NC(=O)[C@@H](CCCNC(=N)N)NC(=O)Cn1cc(CNCc2nc3c(sc4ccc(Br)cc43)c(=O)[nH]2)nn1)C(=O)N[C@H](CCCCN)C(N)=O` [Compound 3, BBTP-Amt-(D-Arg)2-Gly-D-Arg-D-Lys-NH2] gave a remaining activity at 1 µM (ULK2) of 104 ± 11%, a remaining activity at 1 µM (EPH-B4) of 98 ± 13% and a remaining activity at 1 µM (DYRK2) of 83 ± 22%. The remaining activity at 1 µM (MINK1) was 133 ± 14%.
